Test results from patent publication US6858210B1, “Therapeutic and diagnostic domain 1 β2GPI polypeptides and methods of using same” (La Jolla Pharmaceutical Co., priority 1998, dated 2005).
Like-named read-outs stand apart in the source and are kept apart here.

Columns and labels:
rabbit anti-β2GPI = assay: Direct binding ELISA, nickel chelate-coated wells, rabbit antibody; settings: O.D. at 550 nm
In short: (§1)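 His-tagged recombinant β2GPI mutants captured on nickel chelate wells in serial dilution (2 h, room temperature), no anionic phospholipid; GST-6his as negative control. Affinity-purified patient antibodies (11 patients) or rabbit anti-β2GPI detected by alkaline phosphatase anti-IgG, OD 550 nm.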

[1] = tested on: affinity purified β2GPI-dependent antiphospholipid antibody; assay: Competitive inhibition ELISA: recombinant β2GPI proteins compete for antibody binding to coated full length recombinant β2GPI; parameters: species or system human; settings: for IC50: read-out: 50% (concentration to give 50% inhibition)
In short: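 Wells coated with full-length recombinant β2GPI (10 μg/ml, pH 9.5) and milk-blocked. Serially diluted recombinant β2GPI proteins were co-incubated with a fixed concentration of patient antibody for 1 h at 37 °C. Bound IgG detected with alkaline phosphatase anti-human IgG at OD550; percent inhibition is background-corrected against inhibitor-free wells.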

[2] = tested on: affinity purified β2GPI-dependent antiphospholipid antibody; assay: Direct binding ELISA, nickel chelate-coated wells charged with recombinant β2GPI proteins (no cardiolipin); parameters: species or system human; settings: O.D. at 550 nm
In short: as §1

B1: -2345: recombinant β2GPI deletion mutant with domains 2-5 (protein)
chain: GRTPRVCPFAGILENGAVRYTTFEYPNTISFSCNTGFYLNGADSAKCTEEGKWSPELPVCAPIICPPPSIPTFATLRVYKPSAGNNSLYRDTAVFECLPQHAMFGNDTITCTTHGNWTKLPECREVKCPFPSRPDNGFVNYPAKPTLYYKDKATFGCHDGYSLDGPEEIECTKLGNWSAMPSCKASCKLPVKKATVVYQGERVKIQEKFKNGMLHGDKVSFFCKNKEKKCSYTEDAQCIDGTIEVPKCFKEHSSLAFWKTDASDVKPCGHHHHHH
Rabbit anti-β2GPI
  Maximum O.D.: 1.873
[1]; Ab 6203
  Max (maximum inhibition observed at concentrations tested): 10%
  IC50: > 57 µM
[1]; Ab 6501
  Max (maximum inhibition observed at concentrations tested): 20%
  IC50: > 57 µM
[1]; Ab 6509
  Max (maximum inhibition observed at concentrations tested): 20%
  IC50: > 16 µM
[1]; Ab 6626
  Max (maximum inhibition observed at concentrations tested): 18%
  IC50: > 57 µM
[1]; Ab 6632
  Max (maximum inhibition observed at concentrations tested): 20%
  IC50: > 57 µM
[1]; Ab 6641
  Max (maximum inhibition observed at concentrations tested): 20%
  IC50: > 16 µM
[1]; Ab 6644
  Max (maximum inhibition observed at concentrations tested): 10%
  IC50: > 57 µM
[1]; Ab 6652
  Max (maximum inhibition observed at concentrations tested): 40%
  IC50: > 16 µM
[1]; Ab 6701
  Max (maximum inhibition observed at concentrations tested): 10%
  IC50: > 16 µM
[1]; Ab 7008
  Max (maximum inhibition observed at concentrations tested): 20%
  IC50: > 57 µM
[1]; Ab 7015
  Max (maximum inhibition observed at concentrations tested): 10%
  IC50: > 57 µM
[1]; Ab 7101
  Max (maximum inhibition observed at concentrations tested): 5%
  IC50: > 57 µM
[1]; Ab 7104
  Max (maximum inhibition observed at concentrations tested): 10%
  IC50: > 57 µM
[2]; Ab 6203
  Maximum O.D.: 0.074
[2]; Ab 6501
  Maximum O.D.: 0.018
[2]; Ab 6626
  Maximum O.D.: 0.008
[2]; Ab 6632
  Maximum O.D.: 0.031
[2]; Ab 6641
  Maximum O.D.: 0.045
[2]; Ab 6644
  Maximum O.D.: 0.041
[2]; Ab 6652
  Maximum O.D.: 0.008
[2]; Ab 6701
  Maximum O.D.: 0.002
[2]; Ab 7008
  Maximum O.D.: 0.019
[2]; Ab 7015
  Maximum O.D.: 0.114
[2]; Ab 7101
  Maximum O.D.: 0.056
